Among the data in the Immune Epitope Database (IEDB) are IC50 and Kd values, retold here.

The target in test [1] is HLA-A*02:01. As to the kind of experiment: IEDB peptide-MHC binding, purified MHC/competitive/fluorescence; ≥ and ≤ were set here for values at or beyond the usual limits of such assays.
In test [2] the target is HLA-A*02:01. Description: IEDB peptide-MHC binding, purified MHC/direct/fluorescence; filed as Kd, often an IC50 or EC50 that approximates it; ≥ and ≤ were set here for values at or beyond the usual limits of such assays.
The target in the next test is HLA-A*69:01. The description is as above.
Another test deals with HLA-A*02:02. As to the kind of experiment: IEDB peptide-MHC binding, purified MHC/competitive/radioactivity; filed as Kd, often an IC50 or EC50 that approximates it; ≥ and ≤ were set here for values at or beyond the usual limits of such assays. The conditions noted are these: source organism: Vaccinia virus WR.
A further test deals with HLA-A*02:03. The description is as above. The conditions noted are these: source organism: Vaccinia virus WR.
A further test deals with HLA-A*02:06. The test is described as above. The conditions noted are these: source organism: Vaccinia virus WR.
The next test concerns the target HLA-A*32:01. Described as above.
For the next test, the target named is HLA-A*24:02. The description is as above. The conditions noted are these: source organism: Dengue virus 2 Jamaica/1409/1983.
The target of the next test is HLA-A*03:01. Description: IEDB peptide-MHC binding, purified MHC/direct/fluorescence; filed as Kd, often an IC50 or EC50 that approximates it; ≥ and ≤ were set here for values at or beyond the usual limits of such assays.
For another test, the target named is HLA-A*33:01. Description: IEDB peptide-MHC binding, purified MHC/competitive/radioactivity; filed as Kd, often an IC50 or EC50 that approximates it; ≥ and ≤ were set here for values at or beyond the usual limits of such assays. The conditions noted are these: source organism: Dengue virus 1 Brazil/97-11/1997.
Another test has as its target HLA-A*01:01. As to the kind of experiment: IEDB peptide-MHC binding, purified MHC/direct/fluorescence; filed as Kd, often an IC50 or EC50 that approximates it; ≥ and ≤ were set here for values at or beyond the usual limits of such assays. The conditions noted are these: source organism: Haemophilus influenzae.
The next test concerns the target HLA-A*11:01. Described as above.
The next test concerns the target HLA-A*31:01. The test is described as above. The conditions noted are these: source organism: Haemophilus influenzae.
Another test concerns the target HLA-B*15:01. Described as above.
In a further test the target is HLA-B*58:01. The test is described as above. The conditions noted are these: source organism: Mycobacterium tuberculosis str. Haarlem.
Setting [3] is: source organism: Marburg virus - Musoke, Kenya, 1980.
Where [4] appears, read: source organism: Dengue virus 2 Jamaica/1409/1983.
Where [5] appears, read: source organism: Vaccinia virus WR.
The mark [6] stands for this setting: source organism: Dengue virus 1 Brazil/97-11/1997.
[7] abbreviates: source organism: Yersinia pestis Antiqua.
[8] abbreviates: source organism: Haemophilus influenzae.
The mark [9] stands for this setting: source organism: Dengue virus 3 Martinique/1243/1999.
The mark [10] stands for this setting: source organism: Zaire ebolavirus.
The mark [11] stands for this setting: source organism: Francisella tularensis subsp. holarctica LVS.

With LSPETLVGV, in the test with HLA-A*02:01 [1] (source organism: Vaccinia virus), the IC50 – broadly, the midpoint of a concentration-inhibition curve – worked out at 904 nM.

Take VMNPLGLNV: the results for the Kd with HLA-A*02:01 [2] (setting [3]) and in the test with HLA-A*69:01 (setting [3]) were 320 nM and 780 nM, respectively.

Consider NINFNNSSII, for which the dissociation constant Kd (in general, the concentration at which binding is half-saturated) is 6640 nM in the test with HLA-A*02:02, 13300 nM with HLA-A*02:03 and not below 30100 nM in the test with HLA-A*02:06.

Regarding DTIESAKTKI, the values for the dissociation constant (Kd) with HLA-A*02:02, in the test with HLA-A*02:03 and in the test with HLA-A*02:06 were not below 47900 nM, not below 50500 nM and not below 69800 nM, respectively.

On to AAIGKAWEEG, for which the Kd with HLA-A*32:01 (source organism: Dengue virus 1 Singapore/S275/1990) was not below 69900 nM.

Take AGILKRWGTI: in the test with HLA-A*32:01 (setting [4]), the Kd came out at 8820 nM.

Consider GLFDINVIGL, for which the Kd came out at 0.163 nM with HLA-A*02:02, 1.43 nM with HLA-A*02:03 and 240 nM in the test with HLA-A*02:06.

For SLKRFTHTT, the Kd was 825 nM with HLA-A*02:02, 9.05 nM in the test with HLA-A*02:03 and not below 60100 nM with HLA-A*02:06.

As to TWAYHGSYET, in the test with HLA-A*24:02, the Kd amounted to 2160 nM.

FVYHPDRLK: the dissociation constant Kd with HLA-A*03:01 (source organism: Escherichia coli O157:H7) stood at 46.7 nM.

IKHVGLITC registered an IC50 with HLA-A*02:01 [1] (setting [5]) not below 622000 nM.

WVMDTLNGI: the dissociation constant Kd turned out to be 9.78 nM with HLA-A*02:02, 1.01 nM with HLA-A*02:03 and 0.731 nM with HLA-A*02:06.

For the sequence FMNEDHWFSR, the Kd is 7080 nM with HLA-A*32:01 (setting [6]) and 13.2 nM with HLA-A*33:01.

LLNNYTLKI: the Kd with HLA-A*32:01 (setting [5]) turned out to be 25.4 nM.

TTENAAYQV: the dissociation constant (Kd) is not below 77800 nM with HLA-A*02:02, not below 51300 nM with HLA-A*02:03 and 442 nM in the test with HLA-A*02:06.

Take SQGRGWFLL: the dissociation constant Kd in the test with HLA-A*02:01 [2] (setting [7]) was 284 nM; in the test with HLA-A*69:01 (setting [7]), not below 20000 nM.

With GTEMFRHGY, the Kd is 241 nM in the test with HLA-A*01:01; 2730 nM with HLA-A*03:01 (setting [8]); 166 nM with HLA-A*11:01 (setting [8]); 8180 nM with HLA-A*31:01; 4450 nM in the test with HLA-A*69:01 (setting [8]); 1160 nM with HLA-B*15:01 (setting [8]).

Turning to SILGIGTVL, in the test with HLA-A*02:01 [1] (source organism: Hepatitis C virus genotype 1), the IC50 is not below 100000 nM.

Take TLLNETAKV: the results for the dissociation constant Kd with HLA-A*02:02, with HLA-A*02:03 and with HLA-A*02:06 were 246 nM, 83.1 nM and 11.1 nM, respectively.

KGGTGGWLW registered a dissociation constant (Kd) in the test with HLA-B*58:01 of 43.3 nM.

As for ITYWSRFTI, in the test with HLA-A*32:01 (setting [5]), the Kd is 2.48 nM.

As to AMIHKTYIDV, the figures for the Kd with HLA-A*02:02, with HLA-A*02:03 and in the test with HLA-A*02:06 were 335 nM, 26.7 nM and 206 nM, respectively.

Consider LLIHFLLSL, for which the Kd with HLA-A*32:01 (setting [5]) was not below 52800 nM.

As for STISWMMKL, the equilibrium dissociation constant (Kd) with HLA-A*02:02 came to 92.2 nM; with HLA-A*02:03, 22.8 nM; with HLA-A*02:06 it was 12.1 nM.

In the case of EVKTCTWPKS, the Kd in the test with HLA-A*32:01 (setting [9]) was not below 48400 nM.

Turning to ISGVFPVSI, the Kd with HLA-A*32:01 (setting [4]) is 1120 nM.

As to SGQSPARTS, the half-maximal inhibitory concentration (IC50) with HLA-A*02:01 [1] (setting [10]) is not below 234000 nM.

As for KTALLIVSG, the Kd with HLA-A*32:01 (setting [9]) turned out to be 6830 nM.

For GTGNIGETL, the dissociation constant (Kd) with HLA-A*32:01 (setting [4]) came to 8120 nM.

Turning to AVYSICKFY, the results for the dissociation constant (Kd) in the test with HLA-A*03:01 (setting [11]) and with HLA-A*11:01 (setting [11]) were 297 nM and 708 nM, respectively.

For the sequence RIVVALSSLV, the dissociation constant (Kd) with HLA-A*02:02 is 47.6 nM; with HLA-A*02:03 it was 7.21 nM; in the test with HLA-A*02:06, 9.62 nM.

Sequence NLHYWTTQD yielded an IC50 with HLA-A*02:01 [1] (setting [10]) not below 124000 nM.

For NMDWRSLTQV, the dissociation constant Kd with HLA-A*02:02 came to 100 nM; in the test with HLA-A*02:03, 17.4 nM; with HLA-A*02:06, 1.69 nM.

For the sequence VLYNNVVEF, in the test with HLA-A*32:01 (setting [5]), the dissociation constant Kd was 1.45 nM.

As to PAHLINKLL, the Kd with HLA-A*02:02 was 6690 nM; in the test with HLA-A*02:03 it was 6310 nM; in the test with HLA-A*02:06, not below 42300 nM.

For the sequence ILGLPTQTV, the figures for the dissociation constant (Kd) with HLA-A*02:01 [2] (source organism: SARS-CoV1) and with HLA-B*15:01 (source organism: SARS-CoV1) were 402 nM and 1600 nM, respectively.

DTQGSNWIQK: the equilibrium dissociation constant (Kd) in the test with HLA-A*32:01 (setting [4]) worked out at 267 nM.

Turning to ISYGGGWRFQ, the Kd with HLA-A*32:01 (setting [6]) is not below 56400 nM.
